Assay [1] addresses T1, HLA-DQ2.5/secalin 2 peptide complex on Ba/F3 cells (human; rye).
T1 construct: also called Ba/F3-HLA-DQ2.5/secalin 2 peptide
Kind of assay: FACS.

For assay [2], the target named is T2, HLA-DQ2.5/secalin 1 peptide complex on Ba/F3 cells (human; rye).
T2 construct: also called Ba/F3-HLA-DQ2.5/secalin 1 peptide
Kind of assay: FACS. A general note: Flow cytometry measures light scatter and fluorescence of single cells or particles in a stream.

Assay [3] concerns the target T3, HLA-DQ2.5/CLIP peptide complex on Ba/F3 cells (human).
T3 construct: also called Ba/F3-HLA-DQ2.5/CLIP peptide
Kind of assay: FACS.

In assay [4] the target is T4, HLA-DQ2.5/33mer gliadin peptide complex on Ba/F3 cells (human; wheat).
T4 construct: also called Ba/F3-HLA-DQ2.5/33mer gliadin peptide; HLA-DQ2.5/gliadin peptide complex
Kind of assay: FACS.

For assay [5], the target named is T5, HLA-DQ2.5 on HLA-DQ2.5 positive PBMC-B cells (human, UniProt P01909 24-254; P01920 33-261).
T5 construct: also called DQ2.5 + PBMC; HLA-DQ2.5+PBMC B cell
T5 MHC II alpha: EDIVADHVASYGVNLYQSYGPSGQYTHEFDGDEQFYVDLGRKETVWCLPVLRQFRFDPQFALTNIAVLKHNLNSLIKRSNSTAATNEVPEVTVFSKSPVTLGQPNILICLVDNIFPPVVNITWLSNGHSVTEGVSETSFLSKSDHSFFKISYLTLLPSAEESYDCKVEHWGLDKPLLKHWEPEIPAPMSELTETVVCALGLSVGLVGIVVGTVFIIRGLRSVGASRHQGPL
T5 MHC II beta: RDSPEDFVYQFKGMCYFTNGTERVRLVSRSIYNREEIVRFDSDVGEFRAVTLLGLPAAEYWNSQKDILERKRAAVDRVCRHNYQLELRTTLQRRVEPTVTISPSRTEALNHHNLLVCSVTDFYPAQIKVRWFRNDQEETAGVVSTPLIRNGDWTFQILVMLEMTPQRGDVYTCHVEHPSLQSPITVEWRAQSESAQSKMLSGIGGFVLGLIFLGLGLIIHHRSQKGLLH
Kind of assay: FACS.

Assay [6] deals with T6, HLA-DQ2.5/omega 1 gliadin peptide complex on Ba/F3 cells (human; wheat).
T6 construct: also called Ba/F3-HLA-DQ2.5/omega 1 gliadin peptide
Kind of assay: FACS.

Assay [7] addresses T7, HLA-DQ2.5/omega 2 gliadin peptide complex on Ba/F3 cells (human; wheat).
T7 construct: also called Ba/F3-HLA-DQ2.5/omega 2 gliadin peptide
Kind of assay: FACS.

For assay [8], the target named is T8, HLA-DQ2.5/alpha 1b gliadin peptide complex on Ba/F3 cells (human; wheat).
T8 construct: also called Ba/F3-HLA-DQ2.5/alpha 1b gliadin peptide
Kind of assay: FACS.

Assay [9] has as its target T9, HLA-DQ2.5/alpha 1 gliadin peptide complex on Ba/F3 cells (human; wheat).
T9 construct: also called Ba/F3-HLA-DQ2.5/alpha 1 gliadin peptide
Kind of assay: FACS.

Assay [10] concerns the target T10, HLA-DQ2.5 on Ba/F3 cells (not in the form of a complex with a linked peptide) (human, UniProt P01909 24-254; P01920 33-261).
T10 construct: also called Ba/F3-HLA-DQ2.5; No peptide
T10 MHC II alpha: T5 MHC II alpha
T10 MHC II beta: T5 MHC II beta
Kind of assay: FACS.

Assay [11] has as its target T11, HLA-DQ2.5/alpha 2 gliadin peptide complex on Ba/F3 cells (human; wheat).
T11 construct: also called Ba/F3-HLA-DQ2.5/alpha 2 gliadin peptide
Kind of assay: FACS.

Assay [12] deals with T12, recombinant HLA-DQ2.5/33mer gliadin peptide complex (human; wheat).
T12 construct: also called soluble HLA-DQ2.5/33mer gliadin peptide complex
T12 alpha: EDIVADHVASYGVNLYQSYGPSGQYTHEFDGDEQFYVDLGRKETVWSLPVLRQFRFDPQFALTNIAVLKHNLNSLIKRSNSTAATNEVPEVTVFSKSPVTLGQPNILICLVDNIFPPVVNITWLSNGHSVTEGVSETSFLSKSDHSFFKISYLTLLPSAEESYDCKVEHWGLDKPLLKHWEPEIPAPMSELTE
T12 beta: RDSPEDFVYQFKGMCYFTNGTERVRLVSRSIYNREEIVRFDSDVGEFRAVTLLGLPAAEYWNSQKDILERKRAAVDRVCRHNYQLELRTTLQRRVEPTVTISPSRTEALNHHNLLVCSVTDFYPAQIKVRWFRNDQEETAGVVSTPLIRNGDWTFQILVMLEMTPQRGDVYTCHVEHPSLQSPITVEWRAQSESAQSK
T12 peptide: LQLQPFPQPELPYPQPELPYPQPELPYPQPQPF
Kind of assay: SPR, Ab captured, 37 C, pH 7.4.

The target in assay [13] is T12, recombinant HLA-DQ2.5/33mer gliadin …. Kind of assay: AlphaLISA neutralizing assay: biotinylated HLA-DQ2.5/33mer gliadin peptide complex on acceptor beads, biotinylated D2 TCR on donor beads; blocked ligand: D2 TCR (Example 4.4). Background: Bead proximity is the source of the signal in Alpha formats.
The target is the same in assay [14]. Kind of assay: SPR, Ab captured, 37 C, pH 7.4.
Assay [15] has the same target. Kind of assay: AlphaLISA neutralizing assay: biotinylated HLA-DQ2.5/33mer gliadin peptide complex on acceptor beads, biotinylated D2 TCR on donor beads; blocked ligand: D2 TCR (Example 12).

Where two headings read alike, the source gives them in different places.

For orientation: Kd means a measure of binding affinity in units of concentration.

B1: DQN0282ff (antibody, human IgG1, kappa, V domains shown)
VH: QSVEESGGRLVTPGTPLTLSCKASGFDFSIYYMSWVRQAPGKGLEWIGVINSGGGVTWYASWVKGRFTISKTSTTVDLKITSPTTEDTATYFCARLGDSNHYDLWGPGTLVTVSS
VL: AYDMTQTPSSVSAAVGGTVTIKCQASETISSYLAWYQQKPGQRPQLLIYDASNLASGVPSRFKGSGSGTEFTLTISDLECADAATYYCQTHYYITSTTFGGGTKVEIKR
notes: also called DQN0282Hf; DQN0282Lf
As for B1, the “FIG. 30 FACS value (IC17=0, DQN0139bb=100)” value (“FIG. 30 FACS value” below) in assay [1] stood at 48; in assay [2] it was 49.6; in assay [3] it was 28.7; in assay [4] it was 73.5; in [5] it was 4.3; in [6] it was 7. Moreover, the “FIG. 30 FACS value” value in [7] amounted to 42.6; in [8], 20.9; in assay [9] it was 32.6; in assay [10], 3; in [11] it was 34.5. Also, the Kd stood at 11.4 nM in assay [12] and 13.7 nM in assay [14]. Also, the “IC50 (read off the curve)” value in assay [13] is roughly 0.3 µg/mL.

B2: DQN0334bb (antibody, human IgG1, kappa, V domains shown)
VH: QQQLEESGGDLVQPEGSLTLTCKASGFDFSFNAMCWVRQAPGRGPEWIACIYNGNGSTYYASWAKGRFTISKTSSTSVTLQMTSLTAADTATYFCARGGYGLGYAGYGDVNYFNLWGPGTLVTVSS
VL: AVVLTQTASPVSAPVGGTVTIKCQASEDIYFLLAWYRQKPGQPPKLLIYGASTLASGVPSRFKGSGSGTEYTLTISDLECADAATYYCQSYWYGDSGPNTFGGGTKVEIKR
notes: also called DQN0334Hb; DQN0334Lb
With B2, the “FIG. 30 FACS value” value in assay [1] was 3.3; in assay [2] it was 5; in [3], 1.2; in [4], 65.9; in [5] it was 0.8; in assay [6], 2.8. The “FIG. 30 FACS value” value amounted to 36.6 in assay [7]; 16.5 in assay [8]; 46.4 in assay [9]; 0.4 in [10]; 45.3 in assay [11]. Moreover, the Kd in assay [12] amounted to 5.72 nM; in assay [14], 6.29 nM. Besides, the entries for the “IC50 (read off the curve)” value in assay [13] and in [15] were roughly 1 µg/mL and roughly 0.7 µg/mL, respectively.

For the origin of these results see US20230118024A1 (Chugai, published 2023).
